Results published in paper PMC2804306 (Biopolymers, 2008).

Target: Human MMP-12(ΔC) (human, UniProt P39900 106-263)
Test: enzyme inhibition kinetics

Chain of Human MMP-12(ΔC) (P39900 106-263, stated change not applied): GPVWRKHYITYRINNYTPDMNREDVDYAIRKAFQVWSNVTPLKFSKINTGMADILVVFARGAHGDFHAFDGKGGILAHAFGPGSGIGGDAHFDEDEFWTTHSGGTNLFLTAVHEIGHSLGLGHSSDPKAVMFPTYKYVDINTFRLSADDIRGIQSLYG

B1: N-TIMP-1, N-terminal inhibitory domain of tissue inhibitor of metalloproteinases 1 (active form, free alpha-amino group of Cys1) (domain or fragment)
chain: not shown
Ki: ~1.5 nM | stoichiometry N: 1.05 molar equivalents
